This assay has as its target SARS-CoV-2 nsp16 with uncleaved His6-tag (SARS-CoV-2) (UniProt P0DTD1). Description: native MS.

As to “SARS-CoV-2 nsp7-11 polyprotein, tag-free with native (authentic) termini (domain or fragment)”, the percent of signal as complex came out at 2%.

For the origin of these results see PMC12420816 (Nature Communications, 2025).
